Experimental data as given in US20050214312A1.

Target: recombinant human or murine heat shock protein 70 (hsp70) (human or murine)

B1: RGYVYQGL (VSV nucleoprotein amino acids 52-59) (peptide)
peptide: RGYVYQGL
modifications: not checked
Kd: 82 µM
